Data taken from paper PMC12569377, “P-Rex1 limits the agonist-induced internalization of GPCRs independently of its Rac-GEF activity” (Cell Reports, 2025).

T1: GST-Grk2 (Homo sapiens, UniProt P25098)
T1 construct: recombinant GST fusion from Sf9 cells, commercial
T1 sequence (P25098 1-689): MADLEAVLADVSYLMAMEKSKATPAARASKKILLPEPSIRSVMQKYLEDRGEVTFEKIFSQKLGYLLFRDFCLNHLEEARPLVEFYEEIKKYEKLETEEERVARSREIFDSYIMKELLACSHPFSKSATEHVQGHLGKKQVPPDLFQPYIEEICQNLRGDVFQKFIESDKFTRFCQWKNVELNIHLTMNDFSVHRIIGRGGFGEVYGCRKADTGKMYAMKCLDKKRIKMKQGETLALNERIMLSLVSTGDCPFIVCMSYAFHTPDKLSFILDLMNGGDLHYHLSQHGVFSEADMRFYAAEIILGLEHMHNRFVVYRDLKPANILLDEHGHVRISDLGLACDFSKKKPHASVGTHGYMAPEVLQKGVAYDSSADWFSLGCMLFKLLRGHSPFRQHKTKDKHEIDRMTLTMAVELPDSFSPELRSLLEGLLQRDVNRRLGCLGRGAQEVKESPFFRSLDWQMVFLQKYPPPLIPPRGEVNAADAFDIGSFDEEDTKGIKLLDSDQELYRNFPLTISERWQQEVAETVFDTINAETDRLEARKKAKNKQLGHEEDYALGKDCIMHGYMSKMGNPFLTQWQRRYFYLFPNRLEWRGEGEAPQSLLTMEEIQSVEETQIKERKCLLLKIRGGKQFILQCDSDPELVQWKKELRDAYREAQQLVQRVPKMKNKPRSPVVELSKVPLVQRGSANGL


What was measured:
GST-Grk2 = biological target: T1, GST-Grk2; assay: ADP-Glo kinase assay with tubulin; type: biochemical; settings: […] ATP, […] pig brain tubulin, […] MgCl2, pH […] °C; no P-Rex1
[1] = biological target: T2, Recombinant human wild type His-P-Rex2 (human, UniProt Q70Z35 1-1606); assay: pull-down; 5 pmol P-Rex1 or P-Rex2 protein (2.5 pmol for P-Rex1 mutants) with 5 pmol GST, GST-Grk2 or GST-Grk5 in 20 μL detergent-free buffer (50 mM HEPES pH 7.2, 150 mM NaCl), 1 h on ice; GST proteins isolated on magnetic glutathione agarose, 45 min at 4°C, 4 washes in lysis buffer 2 (1% NP-40); western blot with P-Rex1 or P-Rex2 and GST antibodies; settings: both partners purified
T2 construct: source: baculovirus-infected Sf9 cells, purified (Ni-NTA agarose, PD-10 desalting); not shown: 6His, N-terminal, kept

[2] = biological target: T3, GEF-dead EE-P-Rex1 (E56A, N238A) (human, UniProt Q8TCU6 1-1659, E56A | N238A); assay: as above; settings: both partners purified
T3 construct: P-Rex1, human, with point mutations E56A and N238A in the DH domain that abolish Rac-GEF activity; also called GEF-dead P-Rex1; source: baculovirus-infected Sf9 cells, purified using the EE tag

[3] = biological target: T4, GEF-dead His-P-Rex2 (P-Rex2 E30A,N212A) (human, UniProt Q70Z35 1-1606, E30A | N212A); assay: as above; settings: both partners purified
T4 construct: P-Rex2, human, with alanine mutations at Glu30 and Asn212 in the catalytic DH domain; also called GEF-dead P-Rex2; source: baculovirus-infected Sf9 cells, purified (Ni-NTA agarose, PD-10 desalting); not shown: 6His, N-terminal, kept

[4] = biological target: T5, Recombinant human wild type EE-P-Rex1 (human, UniProt Q8TCU6 1-1659); assay: pull-down; as the GST-Grk2 pull-down of EE-P-Rex1, with increasing concentrations of prenylated EE-Gβ1γ2 (up to 20 pmol per sample) added during the binding assay; 0.008% cholate in all samples; settings: both partners purified
T5 construct: source: baculovirus-infected Sf9 cells, purified using the EE tag
T5 sequence (Q8TCU6 whole entry): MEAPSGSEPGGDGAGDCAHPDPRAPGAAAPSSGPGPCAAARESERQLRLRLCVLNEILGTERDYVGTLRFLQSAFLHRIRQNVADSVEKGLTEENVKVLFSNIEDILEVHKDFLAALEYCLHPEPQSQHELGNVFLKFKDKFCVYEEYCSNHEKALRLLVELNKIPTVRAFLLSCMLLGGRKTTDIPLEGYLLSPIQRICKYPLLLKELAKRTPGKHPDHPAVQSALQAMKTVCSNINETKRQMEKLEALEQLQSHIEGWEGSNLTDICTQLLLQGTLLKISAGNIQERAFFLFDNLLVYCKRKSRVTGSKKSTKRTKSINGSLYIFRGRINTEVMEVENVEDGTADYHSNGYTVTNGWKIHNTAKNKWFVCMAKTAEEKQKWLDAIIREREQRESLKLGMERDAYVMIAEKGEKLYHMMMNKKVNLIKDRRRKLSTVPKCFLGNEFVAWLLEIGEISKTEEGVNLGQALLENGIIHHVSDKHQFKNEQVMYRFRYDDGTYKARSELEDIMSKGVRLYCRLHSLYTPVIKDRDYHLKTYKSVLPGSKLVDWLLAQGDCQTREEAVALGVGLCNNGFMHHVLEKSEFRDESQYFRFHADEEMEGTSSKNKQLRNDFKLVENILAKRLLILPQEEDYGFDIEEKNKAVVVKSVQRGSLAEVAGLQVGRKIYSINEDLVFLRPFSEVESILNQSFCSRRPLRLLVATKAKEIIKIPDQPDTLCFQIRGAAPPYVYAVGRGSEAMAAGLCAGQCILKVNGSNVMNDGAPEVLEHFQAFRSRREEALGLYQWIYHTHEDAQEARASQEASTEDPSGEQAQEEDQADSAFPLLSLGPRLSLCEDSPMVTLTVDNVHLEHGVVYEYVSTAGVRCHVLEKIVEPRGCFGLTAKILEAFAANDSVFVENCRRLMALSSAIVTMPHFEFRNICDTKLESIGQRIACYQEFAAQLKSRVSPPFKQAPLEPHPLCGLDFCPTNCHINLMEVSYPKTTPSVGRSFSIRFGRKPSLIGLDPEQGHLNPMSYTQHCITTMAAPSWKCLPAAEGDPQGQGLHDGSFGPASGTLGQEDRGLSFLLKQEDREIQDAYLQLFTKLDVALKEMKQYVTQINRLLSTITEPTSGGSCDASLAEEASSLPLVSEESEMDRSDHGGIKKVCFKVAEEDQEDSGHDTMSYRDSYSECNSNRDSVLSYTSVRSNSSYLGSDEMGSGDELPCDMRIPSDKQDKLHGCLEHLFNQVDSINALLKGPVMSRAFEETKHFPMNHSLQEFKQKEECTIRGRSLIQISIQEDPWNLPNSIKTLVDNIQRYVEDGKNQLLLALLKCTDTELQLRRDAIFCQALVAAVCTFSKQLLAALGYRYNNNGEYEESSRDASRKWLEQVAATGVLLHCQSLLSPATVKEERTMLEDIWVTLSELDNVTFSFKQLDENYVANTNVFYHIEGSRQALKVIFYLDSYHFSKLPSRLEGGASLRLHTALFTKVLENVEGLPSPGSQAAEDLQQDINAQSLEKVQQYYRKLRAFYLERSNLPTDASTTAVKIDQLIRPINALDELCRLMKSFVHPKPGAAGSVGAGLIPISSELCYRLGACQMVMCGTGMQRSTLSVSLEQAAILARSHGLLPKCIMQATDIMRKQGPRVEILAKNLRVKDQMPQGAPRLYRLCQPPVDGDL

T2 sequence (Q70Z35 whole entry): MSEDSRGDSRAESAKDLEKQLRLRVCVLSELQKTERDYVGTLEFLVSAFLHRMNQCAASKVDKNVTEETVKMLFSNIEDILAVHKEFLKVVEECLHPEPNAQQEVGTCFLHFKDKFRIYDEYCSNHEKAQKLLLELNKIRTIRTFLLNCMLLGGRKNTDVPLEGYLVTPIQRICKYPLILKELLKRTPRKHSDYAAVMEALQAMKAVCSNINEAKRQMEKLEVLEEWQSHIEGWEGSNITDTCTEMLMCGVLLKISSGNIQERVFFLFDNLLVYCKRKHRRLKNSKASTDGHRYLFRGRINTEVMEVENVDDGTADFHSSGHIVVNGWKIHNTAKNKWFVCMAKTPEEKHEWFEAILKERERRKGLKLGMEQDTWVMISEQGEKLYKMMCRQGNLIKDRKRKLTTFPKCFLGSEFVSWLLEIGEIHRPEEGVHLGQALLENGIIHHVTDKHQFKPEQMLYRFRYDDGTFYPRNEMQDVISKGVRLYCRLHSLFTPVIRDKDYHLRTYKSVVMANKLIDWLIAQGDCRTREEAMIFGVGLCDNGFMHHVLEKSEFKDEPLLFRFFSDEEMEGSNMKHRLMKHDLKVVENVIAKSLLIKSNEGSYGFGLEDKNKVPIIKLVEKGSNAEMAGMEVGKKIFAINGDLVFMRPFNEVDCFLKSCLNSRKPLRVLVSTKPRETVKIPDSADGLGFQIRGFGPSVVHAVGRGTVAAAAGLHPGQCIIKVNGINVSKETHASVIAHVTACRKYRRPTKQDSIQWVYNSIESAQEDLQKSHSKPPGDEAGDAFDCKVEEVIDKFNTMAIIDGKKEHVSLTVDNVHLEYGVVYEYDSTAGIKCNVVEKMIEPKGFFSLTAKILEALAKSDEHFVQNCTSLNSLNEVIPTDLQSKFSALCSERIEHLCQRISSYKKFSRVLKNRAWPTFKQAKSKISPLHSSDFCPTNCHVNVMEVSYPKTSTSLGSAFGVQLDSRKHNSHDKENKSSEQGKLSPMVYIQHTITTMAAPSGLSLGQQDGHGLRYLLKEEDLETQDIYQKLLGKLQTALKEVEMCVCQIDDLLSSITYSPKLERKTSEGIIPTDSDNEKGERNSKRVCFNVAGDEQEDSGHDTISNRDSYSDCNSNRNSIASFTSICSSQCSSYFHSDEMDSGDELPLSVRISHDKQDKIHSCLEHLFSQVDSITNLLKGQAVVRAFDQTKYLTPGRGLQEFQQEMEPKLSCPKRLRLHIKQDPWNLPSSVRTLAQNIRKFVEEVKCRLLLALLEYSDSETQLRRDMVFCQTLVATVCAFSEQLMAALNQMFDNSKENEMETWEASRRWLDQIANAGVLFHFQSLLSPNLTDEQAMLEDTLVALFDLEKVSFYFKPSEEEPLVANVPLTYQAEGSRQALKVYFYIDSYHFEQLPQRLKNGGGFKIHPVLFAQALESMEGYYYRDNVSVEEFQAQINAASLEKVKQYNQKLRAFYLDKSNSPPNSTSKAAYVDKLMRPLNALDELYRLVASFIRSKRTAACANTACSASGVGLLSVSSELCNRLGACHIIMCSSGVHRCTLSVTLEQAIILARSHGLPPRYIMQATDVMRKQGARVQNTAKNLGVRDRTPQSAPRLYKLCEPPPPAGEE
T3 sequence (Q8TCU6 whole entry E56A/N238A, the tested form may be a part): as the sequence (Q8TCU6 whole entry) above, with E56A, N238A counted along it
T4 sequence (Q70Z35 whole entry E30A/N212A, the tested form may be a part): as the sequence (Q70Z35 whole entry) above, with E30A, N212A counted along it

| binding result [1] | binding result [2] | binding result [3] | binding result [4] | Molecule | ADP-Glo kinase assay with tubulin (GST-Grk2) |
| --- | --- | --- | --- | --- | --- |
|  |  |  |  | Nc1ncnc2c1ncn2[C@@H]1O[C@H](COP(=O)(O)OP(=O)(O)OP(=O)(O)O)[C@@H](O)[C@H]1O [ATP] | GST-Grk2 was able to phosphorylate tubulin |
| binds | binds | binds | binds | Recombinant human GST-Grk2 (enzyme, UniProt P25098 1-689, looked up, G protein-coupled receptor kinase 2 (Grk2), human, Sf9 cell-derived recombinant GST fusion; also called G protein-coupled receptor kinase 2; source: bought: Abcam (ab125620), Sf9 cell-derived, purified recombinant) MADLEAVLADVSYLMAMEKSKATPAARASKKILLPEPSIRSVMQKYLEDRGEVTFEKIFSQKLGYLLFRDFCLNHLEEARPLVEFYEEIKKYEKLETEEERVARSREIFDSYIMKELLACSHPFSKSATEHVQGHLGKKQVPPDLFQPYIEEICQNLRGDVFQKFIESDKFTRFCQWKNVELNIHLTMNDFSVHRIIGRGGFGEVYGCRKADTGKMYAMKCLDKKRIKMKQGETLALNERIMLSLVSTGDCPFIVCMSYAFHTPDKLSFILDLMNGGDLHYHLSQHGVFSEADMRFYAAEIILGLEHMHNRFVVYRDLKPANILLDEHGHVRISDLGLACDFSKKKPHASVGTHGYMAPEVLQKGVAYDSSADWFSLGCMLFKLLRGHSPFRQHKTKDKHEIDRMTLTMAVELPDSFSPELRSLLEGLLQRDVNRRLGCLGRGAQEVKESPFFRSLDWQMVFLQKYPPPLIPPRGEVNAADAFDIGSFDEEDTKGIKLLDSDQELYRNFPLTISERWQQEVAETVFDTINAETDRLEARKKAKNKQLGHEEDYALGKDCIMHGYMSKMGNPFLTQWQRRYFYLFPNRLEWRGEGEAPQSLLTMEEIQSVEETQIKERKCLLLKIRGGKQFILQCDSDPELVQWKKELRDAYREAQQLVQRVPKMKNKPRSPVVELSKVPLVQRGSANGL |  |
